Data published in patent US20100221262A1.
Residue numbers refer to the chain shown, from its start.

B1: YW 88.7 (antibody, part only; not given: constant regions, part only)
heavy chain, part: EVQLVESGGGLVQPGGSLRLSCAASGFTFSDNWISWVRQAPKGLEWVGGIYPAGGYTYYADSVKGRFTISADTSKNTAYLQMSLRAEDTAVYYCAHDIHTRIAVMDYWGQGTLVTVSS
light chain: DIQMTQSPSSLSASVGDRVTITCRASQDVSTAVAWYQQKPGKAPKLLIYSASFLYSGVPSRFSGSGSGTDFTLTISSLQPEDFATYYCQQSYTTPPTFGQGTKVEIKR
B2: YW 83.4 (antibody, part only; not given: constant regions, part only)
heavy chain, part: EVQLVESGGGLVQPGGSLRLSCAASGFTFTNYDIHWVRQAPKGLEWVGWISPSGGYTNYADSVKGRFTISADTSKNTAYLQMSLRAEDTAVYYCARQLWAVRGWVMDYWGQGTLVTVSS
light chain: B1 light chain
B3: YW 83.7 (antibody, part only; not given: constant regions, part only)
heavy chain, part: B2 heavy chain, part with N31G, Y32S, D33S, S51T, S53N, L98S, A100V, V101L, V105A
light chain: B1 light chain
B4: YW 88.64 (antibody, part only; not given: constant regions, part only)
heavy chain, part: EVQLVESGGGLVQPGGSLRLSCAASGFTFSNSGISWVRQAPKGLEWVGYIYPDNGSTNYADSVKGRFTISADTSKNTAYLQMSLRAEDTAVYYCARGVWWFDYWGQGTLVTVSS
light chain: B1 light chain

Assays:
[1] = target: Murine Unc5B (mouse) (UniProt Q8K1S3); test: SPR (ProteOn XPR36), antibody immobilised, murine Unc5B-His as analyte
Sequence of Murine Unc5B (mouse) (Q8K1S3 27-243 limits assumed, form in doubt): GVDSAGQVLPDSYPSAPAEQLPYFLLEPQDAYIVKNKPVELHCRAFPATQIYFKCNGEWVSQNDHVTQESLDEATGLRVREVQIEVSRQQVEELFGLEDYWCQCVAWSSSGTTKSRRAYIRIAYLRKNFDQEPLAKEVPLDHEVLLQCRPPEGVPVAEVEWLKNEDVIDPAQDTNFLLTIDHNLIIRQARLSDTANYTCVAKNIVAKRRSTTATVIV

[2] = target: human Unc5B-His (two N-terminal Ig-like domains of Unc5B, amino acid M1 to amino acid V243, C-terminal Histidine tag) (human) (UniProt Q8IZJ1); test: SPR (ProteOn XPR36), antibody immobilised, human Unc5B-His as analyte

Binder	Kd [1] [nM]	Kd [2] [nM]
B1	1.1	20
B2		2.9
B3		4.1
B4		84
